Results reported in US20240117018A1.

Experiments:
Test in all cases: cell-based or functional assay
[1] = biological target: HIV-1 Env of pseudovirus Ce2060_G9 (HIV-1)
[2] = biological target: HIV-1 Env of pseudovirus ZM135M.PL10a (HIV-1)
[3] = biological target: HIV-1 Env of pseudovirus 6535.3 (HIV-1)
[4] = biological target: HIV-1 Env of pseudovirus 1006_11_C3_1601 (HIV-1)
[5] = biological target: HIV-1 Env of pseudovirus 0260.v5.c36 (HIV-1)
[6] = biological target: HIV-1 Env of pseudovirus ZM247v1(Rev-) (HIV-1)
[7] = biological target: HIV-1 Env of pseudovirus ZM249M.PL1 (HIV-1)
[8] = biological target: HIV-1 Env of pseudovirus ZM214M.PL15 (HIV-1)
[9] = biological target: HIV-1 Env of pseudovirus Ce2010_F5 (HIV-1)
[10] = biological target: HIV-1 Env of pseudovirus AC10.0.29 (HIV-1)
[11] = biological target: HIV-1 Env of pseudovirus RHPA4259.7 (HIV-1)
[12] = biological target: HIV-1 Env of pseudovirus WEAU_d15_410_787 (HIV-1)
[13] = biological target: HIV-1 Env of pseudovirus HIV-16055-2.3 (HIV-1)
[14] = biological target: HIV-1 Env of pseudovirus Q769.d22 (HIV-1)
[15] = biological target: HIV-1 Env of pseudovirus CNE17 (HIV-1)
[16] = biological target: HIV-1 Env of pseudovirus 7030102001E5(Rev-) (HIV-1)
[17] = biological target: HIV-1 Env of pseudovirus Q23.17 (HIV-1)
[18] = biological target: HIV-1 Env of pseudovirus CNE20 (HIV-1)
[19] = biological target: HIV-1 Env of pseudovirus Du156.12 (HIV-1)
[20] = biological target: HIV-1 Env of pseudovirus 62357_14_D3_4589 (HIV-1)
[21] = biological target: HIV-1 Env of pseudovirus TRO.11 (HIV-1)
[22] = biological target: HIV-1 Env of pseudovirus HIV-001428-2.42 (HIV-1)
[23] = biological target: HIV-1 Env of pseudovirus Du172.17 (HIV-1)
[24] = biological target: HIV-1 Env of pseudovirus CNE53 (HIV-1)
[25] = biological target: HIV-1 Env of pseudovirus Ce0682_E4 (HIV-1)
[26] = biological target: HIV-1 Env of pseudovirus ZM53M.PB12 (HIV-1)
[27] = biological target: HIV-1 Env of pseudovirus SC422661.8 (HIV-1)
[28] = biological target: HIV-1 Env of pseudovirus 1012_11_TC21_3257 (HIV-1)
[29] = biological target: HIV-1 Env of pseudovirus T250-4 (HIV-1)
[30] = biological target: HIV-1 Env of pseudovirus CNE5 (HIV-1)
[31] = biological target: HIV-1 Env of pseudovirus Q461.e2 (HIV-1)
[32] = biological target: HIV-1 Env of pseudovirus 6240_08_TA5_4622 (HIV-1)
[33] = biological target: HIV-1 Env of pseudovirus CNE8 (HIV-1)
[34] = biological target: HIV-1 Env of pseudovirus 249M B10 (HIV-1)
[35] = biological target: HIV-1 Env of pseudovirus TRJO4551.58 (HIV-1)
[36] = biological target: HIV-1 Env of pseudovirus Q259.d2.17 (HIV-1)
[37] = biological target: HIV-1 Env of pseudovirus ZM233M.PB6 (HIV-1)

PGT151 (antibody)
neutralization IC50 [1]: 0.135 µg/mL | neutralization IC80 [1]: > 50 µg/mL | neutralization IC50 [2]: > 50 µg/mL | neutralization IC80 [2]: > 50 µg/mL | neutralization IC50 [3]: < 0.001 µg/mL | neutralization IC80 [3]: 0.012 µg/mL | neutralization IC50 [4]: 2.89 µg/mL | neutralization IC80 [4]: > 50 µg/mL | neutralization IC50 [5]: 0.427 µg/mL | neutralization IC80 [5]: > 50 µg/mL | neutralization IC50 [6]: 0.009 µg/mL | neutralization IC80 [6]: > 50 µg/mL | neutralization IC50 [7]: 0.004 µg/mL | neutralization IC80 [7]: 0.015 µg/mL | neutralization IC50 [8]: 0.008 µg/mL | neutralization IC80 [8]: 0.045 µg/mL | neutralization IC50 [9]: > 50 µg/mL | neutralization IC80 [9]: > 50 µg/mL | neutralization IC50 [10]: 0.007 µg/mL | neutralization IC80 [10]: 0.023 µg/mL | neutralization IC50 [11]: 0.006 µg/mL | neutralization IC80 [11]: 0.033 µg/mL | neutralization IC50 [12]: 0.01 µg/mL | neutralization IC80 [12]: > 50 µg/mL | neutralization IC50 [13]: 0.143 µg/mL | neutralization IC80 [13]: > 50 µg/mL | neutralization IC50 [14]: > 50 µg/mL | neutralization IC80 [14]: > 50 µg/mL | neutralization IC50 [15]: 0.093 µg/mL | neutralization IC80 [15]: > 50 µg/mL | neutralization IC50 [16]: 0.001 µg/mL | neutralization IC80 [16]: 0.011 µg/mL | neutralization IC50 [17]: 0.007 µg/mL | neutralization IC80 [17]: 0.045 µg/mL | neutralization IC50 [18]: > 50 µg/mL | neutralization IC80 [18]: > 50 µg/mL | neutralization IC50 [19]: 0.005 µg/mL | neutralization IC80 [19]: 0.023 µg/mL | neutralization IC50 [20]: 0.004 µg/mL | neutralization IC80 [20]: 0.023 µg/mL | neutralization IC50 [21]: > 50 µg/mL | neutralization IC80 [21]: > 50 µg/mL | neutralization IC50 [22]: 0.027 µg/mL | neutralization IC80 [22]: > 50 µg/mL | neutralization IC50 [23]: 0.003 µg/mL | neutralization IC80 [23]: 0.013 µg/mL | neutralization IC50 [24]: > 50 µg/mL | neutralization IC80 [24]: > 50 µg/mL | neutralization IC50 [25]: > 50 µg/mL | neutralization IC80 [25]: > 50 µg/mL | neutralization IC50 [26]: > 50 µg/mL | neutralization IC80 [26]: > 50 µg/mL | neutralization IC50 [27]: 0.005 µg/mL | neutralization IC80 [27]: 0.028 µg/mL | neutralization IC50 [28]: > 50 µg/mL | neutralization IC80 [28]: > 50 µg/mL | neutralization IC50 [29]: 0.005 µg/mL | neutralization IC80 [29]: 0.014 µg/mL | IC50 (Titer in TZM.bl cells) [30]: > 50 µg/mL | IC80 (Titer in TZM.bl cells) [30]: > 50 µg/mL | neutralization IC50 [31]: 12.6 µg/mL | neutralization IC80 [31]: > 50 µg/mL | neutralization IC50 [32]: 0.046 µg/mL | neutralization IC80 [32]: 0.42 µg/mL | IC50 (Titer in TZM.bl cells) [33]: > 50 µg/mL | IC80 (Titer in TZM.bl cells) [33]: > 50 µg/mL | neutralization IC50 [34]: 0.007 µg/mL | neutralization IC80 [34]: 0.023 µg/mL | neutralization IC50 [35]: 0.496 µg/mL | neutralization IC80 [35]: 4.22 µg/mL | neutralization IC50 [36]: > 50 µg/mL | neutralization IC80 [36]: > 50 µg/mL | neutralization IC50 [37]: 0.027 µg/mL | neutralization IC80 [37]: 5.16 µg/mL
